Article PMC10292688
Where two headings read alike, the source gives them in different places.

Tests used:
Experiment in all cases: SAXS
AIF H454A mutant = AIF H454A mutant (UniProt O95831)
[1] = target: AIF R529A mutant (Cβ-clasp) (UniProt O95831)
[2] = target: AIF R529A mutant (Cβ-clasp) (UniProt O95831); remark: listed apart in the source

stoichiometry N (AIF H454A mutant)	stoichiometry N [1]	stoichiometry N [2]	Substance
2	–	–	AIF H454A mutant (from UniProt O95831 55-613) (natural protein)
–	2	2	AIF R529A mutant (Cβ-clasp) (from UniProt O95831 55-613) (natural protein)
